Source: doi:10.1101/2022.05.11.491540
Where two headings read alike, the source gives them in different places.

What was measured:
Sirt7 (Sirt7WT) (human) [1] = test: fluorescence polarization
Sirt7-CLB (human) = test: NanoLuc complementation
[2] = tested on: isolated NanoLuc Large Bit; test: NanoLuc complementation
Sirt7 (Sirt7WT) (human) [3] = test: kinetic titration

With 20 bp FAM-DNA as the substance, how does the Kd (Sirt7 (Sirt7WT) (human) [1]) read?
Its Kd is 57.2 nM.

Which results are given for “SMB-AcNucs (H3K18Ac small-bit nucleosome)”?
Kd (Sirt7-CLB (human); histone H3K18 acetylation): 3.75 nM; binding signal (fold lower Kd than without ADPr) (Sirt7-CLB (human); histone H3K18 acetylation): 2.5

For “SMB-Nucs (unmodified small-bit nucleosome)”, which Kd (Sirt7-CLB (human)) is on record?
The Kd was 3.92 nM.

What about the Kd [2] of the same substance?
Its Kd is over 5000 nM.

With nucleosome core particle (unmodified) as the substance, how does the Kd (Sirt7 (Sirt7WT) (human) [3]) read?
Its Kd is 2.92 nM.
